Data from patent US20110165161A1, “ANTI-EPCAM ANTIBODIES THAT INDUCE APOPTOSIS OF CANCER CELLS AND METHODS USING SAME” (priority 2009, published 2011).

Experiments:
[1] = biological target: T1, human EpCAM (epithelial cell adhesion/activating molecule) (human, UniProt P16422 24-314); assay: cell-based or functional assay
T1 sequence: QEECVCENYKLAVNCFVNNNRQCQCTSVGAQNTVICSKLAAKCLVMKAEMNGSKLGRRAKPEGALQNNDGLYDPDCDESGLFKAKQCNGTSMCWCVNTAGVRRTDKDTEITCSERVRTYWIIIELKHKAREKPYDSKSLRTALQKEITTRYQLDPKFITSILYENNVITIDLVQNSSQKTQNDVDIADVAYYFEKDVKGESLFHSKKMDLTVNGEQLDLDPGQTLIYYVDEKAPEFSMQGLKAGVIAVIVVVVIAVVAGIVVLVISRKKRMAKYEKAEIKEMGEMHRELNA

[2] = biological target: T1, human EpCAM (epithelial cell …); assay: cell-based or functional assay; remark: listed apart in the source
[3] = biological target: T1, human EpCAM (epithelial cell …); assay: flow cytometry, CHO/EpCAM cells, 0.1 µg/ml antibody
EGFI-Cr1 E25K = biological target: T2, EGFI-Cr1 E25K (human, UniProt P16422 24-63); assay: direct ELISA, coated EGFI-Cr1 fusion, 0.1 µg/ml antibody
T2 construct: not shown: The fused constant region of human immunoglobulin gamma 1 heavy chain (Cr1)
T2 chain: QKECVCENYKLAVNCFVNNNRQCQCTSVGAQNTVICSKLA

EGFI-Cr1 E26D = biological target: T3, EGFI-Cr1 E26D (human, UniProt P16422 24-63); assay: as above
T3 construct: not shown: The fused constant region of human immunoglobulin gamma 1 heavy chain (Cr1)
T3 chain: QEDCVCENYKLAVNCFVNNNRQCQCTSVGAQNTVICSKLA

EGFI-Cr1 Q45A = biological target: T4, EGFI-Cr1 Q45A (human, UniProt P16422 24-63); assay: as above
T4 construct: not shown: the constant region of human immunoglobulin gamma 1 heavy chain (Cr1) fused at the C-terminus
T4 chain: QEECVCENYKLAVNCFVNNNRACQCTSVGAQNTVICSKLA

EGFI-Cr1 Q47A = biological target: T5, EGFI-Cr1 Q47A (human, UniProt P16422 24-63); assay: as above
T5 construct: not shown: the constant region of human immunoglobulin gamma 1 heavy chain (Cr1) fused at the C-terminus
T5 chain: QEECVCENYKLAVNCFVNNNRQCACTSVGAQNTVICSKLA

[4] = biological target: T6, EGFI-Cr1 wild type (first EGF-like repeat of human EpCAM fused to the constant region of human immunoglobulin … (human, UniProt P01857-1 99-330 = IgG part)); assay: as above
T6 construct: cDNA covered aa 1-63; Expressed in COS-7 cells; also called WT; EpCAM EGF-1 fusion protein WT

EGFI-Cr1 R44G = biological target: T7, EGFI-Cr1 R44G (human, UniProt P16422 24-63); assay: as above
T7 construct: not shown: the constant region of human immunoglobulin gamma 1 heavy chain (Cr1) fused at the C-terminus
T7 chain: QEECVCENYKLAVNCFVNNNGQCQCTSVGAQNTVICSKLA

EGFI-Cr1 N43A = biological target: T8, EGFI-Cr1 N43A (human, UniProt P16422 24-63); assay: as above
T8 construct: not shown: the constant region of human immunoglobulin gamma 1 heavy chain (Cr1) fused at the C-terminus
T8 chain: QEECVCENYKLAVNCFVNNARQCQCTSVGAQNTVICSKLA

EGFI-Cr1 N37R = biological target: T9, EGFI-Cr1 N37R (human); assay: as above
T9 construct: not shown: The fused constant region of human immunoglobulin gamma 1 heavy chain (Cr1)
T9 chain: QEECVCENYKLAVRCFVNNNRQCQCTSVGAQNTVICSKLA

EGFI-Cr1 Q24A = biological target: T10, EGFI-Cr1 Q24A (human, UniProt P16422 25-63); assay: as above
T10 construct: not shown: The fused constant region of human immunoglobulin gamma 1 heavy chain (Cr1)
T10 chain: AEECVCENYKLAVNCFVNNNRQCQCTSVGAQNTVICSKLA

EGFI-Cr1 N41A = biological target: T11, EGFI-Cr1 N41A (human, UniProt P16422 24-63); assay: as above
T11 construct: not shown: The fused constant region of human immunoglobulin gamma 1 heavy chain (Cr1)
T11 chain: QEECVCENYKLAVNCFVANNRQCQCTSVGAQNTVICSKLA

EGFI-Cr1 N42E = biological target: T12, EGFI-Cr1 N42E (human, UniProt P16422 24-63); assay: as above
T12 construct: not shown: the constant region of human immunoglobulin gamma 1 heavy chain (Cr1) fused at the C-terminus
T12 chain: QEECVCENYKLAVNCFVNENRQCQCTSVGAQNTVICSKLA

EGFI-Cr1 A35T = biological target: T13, EGFI-Cr1 A35T (human, UniProt P16422 24-63); assay: as above
T13 construct: not shown: The fused constant region of human immunoglobulin gamma 1 heavy chain (Cr1)
T13 chain: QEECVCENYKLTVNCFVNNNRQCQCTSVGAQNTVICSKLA

EGFI-Cr1 F39A = biological target: T14, EGFI-Cr1 F39A (human, UniProt P16422 24-63); assay: as above
T14 construct: not shown: The fused constant region of human immunoglobulin gamma 1 heavy chain (Cr1)
T14 chain: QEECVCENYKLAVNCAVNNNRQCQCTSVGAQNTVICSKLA

EGFI-Cr1 T49A = biological target: T15, EGFI-Cr1 T49A (human, UniProt P16422 24-63); assay: as above
T15 construct: not shown: the constant region of human immunoglobulin gamma 1 heavy chain (Cr1) fused at the C-terminus
T15 chain: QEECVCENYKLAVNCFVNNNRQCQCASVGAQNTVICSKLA

EGFI-Cr1 V40E = biological target: T16, EGFI-Cr1 V40E (human); assay: as above
T16 construct: not shown: The fused constant region of human immunoglobulin gamma 1 heavy chain (Cr1)
T16 chain: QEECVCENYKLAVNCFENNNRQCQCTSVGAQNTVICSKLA

B1: murine monoclonal antibody 4D2 (antibody, mouse IgG1, V domains shown)
VH: EVQLVESGGDLVKPGGSLKLSCAASGFAFDSYGMSWVRQTPGKRLEWVATISSGGYYTYYQDSVKGRFTTSRDNAKNTLDLQMSSLKSEDSAIYYCARRGNYDVDYYAMDYWGQGTSVTVSS
VL: DVVMTQTPLSLPVSLGDQASISCRSSQSLVHSNGNTYLHWYLQKPGQSPKLLIYKVSNRFSGVPDRFSGSGSGTDFTLRISRVEAEDLGVYFCSQSTHVPPWTFGGGTKLEIKR
notes: Mouse IgG1, kappa, from hybridoma; also called m338-4D2.20
**Q.** Which results are given for B1?
**A.** % of Annexin V + PI staining (untreated background subtracted), NCI-H358, 10 µg/ml mAb, Exp1 [1]: 43%; % of Annexin V + PI staining (untreated background subtracted), NCI-H358, 10 µg/ml mAb, Exp2 [1]: 41%; % of Annexin V + PI staining (untreated background subtracted), NCI-H358, 10 µg/ml mAb, Exp3 [1]: 45%; % of Annexin V + PI staining (untreated background subtracted), NCI-H358, 10 µg/ml mAb, Exp4 [1]: 46%; % of Annexin V + PI staining (untreated background subtracted), NCI-H358, 10 µg/ml mAb, Exp5 [1]: 43%; % Annexin V/PI-positive cells, DLD-1, 1.0 µg/ml mAb [2]: 31%; % Annexin V/PI-positive cells, DLD-1, 3.0 µg/ml mAb [2]: 51%; % Annexin V/PI-positive cells, DLD-1, 10 µg/ml mAb [2]: 62%; % Annexin V/PI-positive cells, FaDu, 1.0 µg/ml mAb [2]: 37%; % Annexin V/PI-positive cells, FaDu, 3.0 µg/ml mAb [2]: 43%; % Annexin V/PI-positive cells, FaDu, 10 µg/ml mAb [2]: 46%; % Annexin V/PI-positive cells, LNCaP, 1.0 µg/ml mAb [2]: 49%; % Annexin V/PI-positive cells, LNCaP, 3.0 µg/ml mAb [2]: 52%; % Annexin V/PI-positive cells, LNCaP, 10 µg/ml mAb [2]: 50%; % Annexin V/PI-positive cells, NCI-H520, 1.0 µg/ml mAb [2]: 24%; % Annexin V/PI-positive cells, NCI-H520, 3.0 µg/ml mAb [2]: 30%; % Annexin V/PI-positive cells, NCI-H520, 10 µg/ml mAb [2]: 32%; % Annexin V/PI-positive cells, NCI-N87, 1.0 µg/ml mAb [2]: 49%; % Annexin V/PI-positive cells, NCI-N87, 3.0 µg/ml mAb [2]: 52%; % Annexin V/PI-positive cells, NCI-N87, 10 µg/ml mAb [2]: 55%; % Annexin V/PI-positive cells, NIH:OVCAR-3, 1.0 µg/ml mAb [2]: 40%; % Annexin V/PI-positive cells, NIH:OVCAR-3, 3.0 µg/ml mAb [2]: 51%; % Annexin V/PI-positive cells, NIH:OVCAR-3, 10 µg/ml mAb [2]: 56%; % Annexin V/PI-positive cells, T-47D, 1.0 µg/ml mAb [2]: 35%; % Annexin V/PI-positive cells, T-47D, 3.0 µg/ml mAb [2]: 44%; % Annexin V/PI-positive cells, T-47D, 10 µg/ml mAb [2]: 45%; MFI [3]: 1740 MFI; relative binding activity (% of WT) (EGFI-Cr1 E25K): 2%; relative binding activity (% of WT) (EGFI-Cr1 E26D): 52%; relative binding activity (% of WT) (EGFI-Cr1 Q45A): 4%; relative binding activity (% of WT) (EGFI-Cr1 Q47A): 23%; relative binding activity (% of WT) [4]: 100%; relative binding activity (% of WT) (EGFI-Cr1 R44G): 1%; relative binding activity (% of WT) (EGFI-Cr1 N43A): 57%; relative binding activity (% of WT) (EGFI-Cr1 N37R): 64%; relative binding activity (% of WT) (EGFI-Cr1 Q24A): 41%; relative binding activity (% of WT) (EGFI-Cr1 N41A): 0%; relative binding activity (% of WT) (EGFI-Cr1 N42E): 82%; relative binding activity (% of WT) (EGFI-Cr1 A35T): 27%; relative binding activity (% of WT) (EGFI-Cr1 F39A): 11%; relative binding activity (% of WT) (EGFI-Cr1 T49A): 63%; relative binding activity (% of WT) (EGFI-Cr1 V40E): 1%
